Numbered stars: 1 amine (or outer) side, 2 acyl side, 3 side chain; on linkers, the order of the positions; unused ones are H or OH. Bridge positions count the residues as written; N and C are the ends. Side chains are listed from the residue outwards. Ends that are not written are not given here. * marks the point of attachment. C20 diacid = O=C(O)CCCCCCCCCCCCCCCCCCC(=O)*; γGlu = O=C(O)[C@H](CCC(=O)[*:2])N[*:1]; AEEA = NCCOCCOCC(=O)O
T1: human calcitonin receptor (human, UniProt P30988 25-474)
T1 construct: whole, on cells; also called hCTR; hCT
T1 sequence (looked up): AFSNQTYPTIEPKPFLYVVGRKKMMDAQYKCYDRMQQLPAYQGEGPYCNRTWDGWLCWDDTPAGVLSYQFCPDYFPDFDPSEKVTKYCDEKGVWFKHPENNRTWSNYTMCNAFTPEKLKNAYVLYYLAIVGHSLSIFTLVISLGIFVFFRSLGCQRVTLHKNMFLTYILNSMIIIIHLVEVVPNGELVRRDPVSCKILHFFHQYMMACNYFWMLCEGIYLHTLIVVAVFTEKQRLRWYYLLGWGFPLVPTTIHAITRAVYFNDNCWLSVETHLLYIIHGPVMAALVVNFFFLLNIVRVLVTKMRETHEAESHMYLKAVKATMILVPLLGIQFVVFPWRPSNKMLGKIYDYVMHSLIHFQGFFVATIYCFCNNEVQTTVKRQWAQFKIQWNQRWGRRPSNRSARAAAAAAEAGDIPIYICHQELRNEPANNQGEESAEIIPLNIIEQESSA

B1: N^ε1-[2-[2-[2-[[2-[2-[2-[[(4S)-4-carboxy-4-(19-carboxynonadecanoylamino)butanoyl]amino]ethoxy]ethoxy]acetyl]amino]ethoxy]ethoxy]acetyl]-[Arg17,Pro21,Pro27,His34 … (peptide)
peptide: K([AEEA-AEEA-γGlu-C20 diacid])CNTATCATQRLANFLRHSSPNFGAIPSSTNVGHNTY-NH2
modifications: disulfide 2-7; N-terminus assumed
SMILES: CC[C@H](C)[C@H](NC(=O)[C@H](C)NC(=O)CNC(=O)[C@H](Cc1ccccc1)NC(=O)[C@H](CC(N)=O)NC(=O)[C@@H]1CCCN1C(=O)[C@H](CO)NC(=O)[C@H](CO)NC(=O)[C@H](Cc1c[nH]cn1)NC(=O)[C@H](CCCNC(=N)N)NC(=O)[C@H](CC(C)C)NC(=O)[C@H](Cc1ccccc1)NC(=O)[C@H](CC(N)=O)NC(=O)[C@H](C)NC(=O)[C@H](CC(C)C)NC(=O)[C@H](CCCNC(=N)N)NC(=O)[C@H](CCC(N)=O)NC(=O)[C@@H](NC(=O)[C@H](C)NC(=O)[C@@H]1CSSC[C@H](NC(=O)[C@@H](N)CCCCNC(=O)COCCOCCNC(=O)COCCOCCNC(=O)CC[C@H](NC(=O)CCCCCCCCCCCCCCCCCCC(=O)O)C(=O)O)C(=O)N[C@@H](CC(N)=O)C(=O)N[C@@H]([C@@H](C)O)C(=O)N[C@@H](C)C(=O)N[C@@H]([C@@H](C)O)C(=O)N1)[C@@H](C)O)C(=O)N1CCC[C@H]1C(=O)N[C@@H](CO)C(=O)N[C@@H](CO)C(=O)N[C@H](C(=O)N[C@@H](CC(N)=O)C(=O)N[C@H](C(=O)NCC(=O)N[C@@H](Cc1c[nH]cn1)C(=O)N[C@@H](CC(N)=O)C(=O)N[C@H](C(=O)N[C@@H](Cc1ccc(O)cc1)C(N)=O)[C@@H](C)O)C(C)C)[C@@H](C)O
notes: also called compound 97
B2: N^ε1-[(4S)-4-carboxy-4-(19-carboxynonadecanoylamino)butanoyl]-[Arg17,Pro21,Pro27,His34]-h-amylin (peptide)
peptide: K([γGlu-C20 diacid])CNTATCATQRLANFLRHSSPNFGAIPSSTNVGHNTY-NH2
modifications: disulfide 2-7; N-terminus assumed
SMILES: CC[C@H](C)[C@H](NC(=O)[C@H](C)NC(=O)CNC(=O)[C@H](Cc1ccccc1)NC(=O)[C@H](CC(N)=O)NC(=O)[C@@H]1CCCN1C(=O)[C@H](CO)NC(=O)[C@H](CO)NC(=O)[C@H](Cc1c[nH]cn1)NC(=O)[C@H](CCCNC(=N)N)NC(=O)[C@H](CC(C)C)NC(=O)[C@H](Cc1ccccc1)NC(=O)[C@H](CC(N)=O)NC(=O)[C@H](C)NC(=O)[C@H](CC(C)C)NC(=O)[C@H](CCCNC(=N)N)NC(=O)[C@H](CCC(N)=O)NC(=O)[C@@H](NC(=O)[C@H](C)NC(=O)[C@@H]1CSSC[C@H](NC(=O)[C@@H](N)CCCCNC(=O)CC[C@H](NC(=O)CCCCCCCCCCCCCCCCCCC(=O)O)C(=O)O)C(=O)N[C@@H](CC(N)=O)C(=O)N[C@@H]([C@@H](C)O)C(=O)N[C@@H](C)C(=O)N[C@@H]([C@@H](C)O)C(=O)N1)[C@@H](C)O)C(=O)N1CCC[C@H]1C(=O)N[C@@H](CO)C(=O)N[C@@H](CO)C(=O)N[C@H](C(=O)N[C@@H](CC(N)=O)C(=O)N[C@H](C(=O)NCC(=O)N[C@@H](Cc1c[nH]cn1)C(=O)N[C@@H](CC(N)=O)C(=O)N[C@H](C(=O)N[C@@H](Cc1ccc(O)cc1)C(N)=O)[C@@H](C)O)C(C)C)[C@@H](C)O
notes: also called compound 77
B3: N^ε1-[(4S)-4-carboxy-4-[[(4S)-4-carboxy-4-(19-carboxynonadecanoylamino)butanoyl]amino]butanoyl]-[His14,Arg17,Pro21,Pro27]-h-amylin (peptide)
peptide: K([γGlu-γGlu-C20 diacid])CNTATCATQRLAHFLRHSSPNFGAIPSSTNVGSNTY-NH2
modifications: disulfide 2-7; N-terminus assumed
SMILES: CC[C@H](C)[C@H](NC(=O)[C@H](C)NC(=O)CNC(=O)[C@H](Cc1ccccc1)NC(=O)[C@H](CC(N)=O)NC(=O)[C@@H]1CCCN1C(=O)[C@H](CO)NC(=O)[C@H](CO)NC(=O)[C@H](Cc1c[nH]cn1)NC(=O)[C@H](CCCNC(=N)N)NC(=O)[C@H](CC(C)C)NC(=O)[C@H](Cc1ccccc1)NC(=O)[C@H](Cc1c[nH]cn1)NC(=O)[C@H](C)NC(=O)[C@H](CC(C)C)NC(=O)[C@H](CCCNC(=N)N)NC(=O)[C@H](CCC(N)=O)NC(=O)[C@@H](NC(=O)[C@H](C)NC(=O)[C@@H]1CSSC[C@H](NC(=O)[C@@H](N)CCCCNC(=O)CC[C@H](NC(=O)CC[C@H](NC(=O)CCCCCCCCCCCCCCCCCCC(=O)O)C(=O)O)C(=O)O)C(=O)N[C@@H](CC(N)=O)C(=O)N[C@@H]([C@@H](C)O)C(=O)N[C@@H](C)C(=O)N[C@@H]([C@@H](C)O)C(=O)N1)[C@@H](C)O)C(=O)N1CCC[C@H]1C(=O)N[C@@H](CO)C(=O)N[C@@H](CO)C(=O)N[C@H](C(=O)N[C@@H](CC(N)=O)C(=O)N[C@H](C(=O)NCC(=O)N[C@@H](CO)C(=O)N[C@@H](CC(N)=O)C(=O)N[C@H](C(=O)N[C@@H](Cc1ccc(O)cc1)C(N)=O)[C@@H](C)O)C(C)C)[C@@H](C)O
notes: also called compound 92
B4: N^ε1-[(4S)-4-carboxy-4-[[(4S)-4-carboxy-4-(19-carboxynonadecanoylamino)butanoyl]amino]butanoyl]-[Ser14,Arg17,Pro21,Pro27,Pro34,Glu35]-h-amylin (peptide)
peptide: K([γGlu-γGlu-C20 diacid])CNTATCATQRLASFLRHSSPNFGAIPSSTNVGPETY-NH2
modifications: disulfide 2-7; N-terminus assumed
SMILES: CC[C@H](C)[C@H](NC(=O)[C@H](C)NC(=O)CNC(=O)[C@H](Cc1ccccc1)NC(=O)[C@H](CC(N)=O)NC(=O)[C@@H]1CCCN1C(=O)[C@H](CO)NC(=O)[C@H](CO)NC(=O)[C@H](Cc1c[nH]cn1)NC(=O)[C@H](CCCNC(=N)N)NC(=O)[C@H](CC(C)C)NC(=O)[C@H](Cc1ccccc1)NC(=O)[C@H](CO)NC(=O)[C@H](C)NC(=O)[C@H](CC(C)C)NC(=O)[C@H](CCCNC(=N)N)NC(=O)[C@H](CCC(N)=O)NC(=O)[C@@H](NC(=O)[C@H](C)NC(=O)[C@@H]1CSSC[C@H](NC(=O)[C@@H](N)CCCCNC(=O)CC[C@H](NC(=O)CC[C@H](NC(=O)CCCCCCCCCCCCCCCCCCC(=O)O)C(=O)O)C(=O)O)C(=O)N[C@@H](CC(N)=O)C(=O)N[C@@H]([C@@H](C)O)C(=O)N[C@@H](C)C(=O)N[C@@H]([C@@H](C)O)C(=O)N1)[C@@H](C)O)C(=O)N1CCC[C@H]1C(=O)N[C@@H](CO)C(=O)N[C@@H](CO)C(=O)N[C@H](C(=O)N[C@@H](CC(N)=O)C(=O)N[C@H](C(=O)NCC(=O)N1CCC[C@H]1C(=O)N[C@@H](CCC(=O)O)C(=O)N[C@H](C(=O)N[C@@H](Cc1ccc(O)cc1)C(N)=O)[C@@H](C)O)C(C)C)[C@@H](C)O
notes: also called compound 120
B5: N^ε1-[(4S)-4-carboxy-4-[[(4S)-4-carboxy-4-(19-carboxynonadecanoylamino)butanoyl]amino]butanoyl]-[Arg17,Pro21,Pro27,His34]-h-amylin (peptide)
peptide: K([γGlu-γGlu-C20 diacid])CNTATCATQRLANFLRHSSPNFGAIPSSTNVGHNTY-NH2
modifications: disulfide 2-7; N-terminus assumed
SMILES: CC[C@H](C)[C@H](NC(=O)[C@H](C)NC(=O)CNC(=O)[C@H](Cc1ccccc1)NC(=O)[C@H](CC(N)=O)NC(=O)[C@@H]1CCCN1C(=O)[C@H](CO)NC(=O)[C@H](CO)NC(=O)[C@H](Cc1c[nH]cn1)NC(=O)[C@H](CCCNC(=N)N)NC(=O)[C@H](CC(C)C)NC(=O)[C@H](Cc1ccccc1)NC(=O)[C@H](CC(N)=O)NC(=O)[C@H](C)NC(=O)[C@H](CC(C)C)NC(=O)[C@H](CCCNC(=N)N)NC(=O)[C@H](CCC(N)=O)NC(=O)[C@@H](NC(=O)[C@H](C)NC(=O)[C@@H]1CSSC[C@H](NC(=O)[C@@H](N)CCCCNC(=O)CC[C@H](NC(=O)CC[C@H](NC(=O)CCCCCCCCCCCCCCCCCCC(=O)O)C(=O)O)C(=O)O)C(=O)N[C@@H](CC(N)=O)C(=O)N[C@@H]([C@@H](C)O)C(=O)N[C@@H](C)C(=O)N[C@@H]([C@@H](C)O)C(=O)N1)[C@@H](C)O)C(=O)N1CCC[C@H]1C(=O)N[C@@H](CO)C(=O)N[C@@H](CO)C(=O)N[C@H](C(=O)N[C@@H](CC(N)=O)C(=O)N[C@H](C(=O)NCC(=O)N[C@@H](Cc1c[nH]cn1)C(=O)N[C@@H](CC(N)=O)C(=O)N[C@H](C(=O)N[C@@H](Cc1ccc(O)cc1)C(N)=O)[C@@H](C)O)C(C)C)[C@@H](C)O
notes: also called compound 86
B6: N^ε1-[2-[2-[2-(19-carboxynonadecanoylamino)ethoxy]ethoxy]acetyl]-[Arg17,Pro21,Pro27,His34]-h-amylin (peptide)
peptide: K([AEEA-C20 diacid])CNTATCATQRLANFLRHSSPNFGAIPSSTNVGHNTY-NH2
modifications: disulfide 2-7; N-terminus assumed
SMILES: CC[C@H](C)[C@H](NC(=O)[C@H](C)NC(=O)CNC(=O)[C@H](Cc1ccccc1)NC(=O)[C@H](CC(N)=O)NC(=O)[C@@H]1CCCN1C(=O)[C@H](CO)NC(=O)[C@H](CO)NC(=O)[C@H](Cc1c[nH]cn1)NC(=O)[C@H](CCCNC(=N)N)NC(=O)[C@H](CC(C)C)NC(=O)[C@H](Cc1ccccc1)NC(=O)[C@H](CC(N)=O)NC(=O)[C@H](C)NC(=O)[C@H](CC(C)C)NC(=O)[C@H](CCCNC(=N)N)NC(=O)[C@H](CCC(N)=O)NC(=O)[C@@H](NC(=O)[C@H](C)NC(=O)[C@@H]1CSSC[C@H](NC(=O)[C@@H](N)CCCCNC(=O)COCCOCCNC(=O)CCCCCCCCCCCCCCCCCCC(=O)O)C(=O)N[C@@H](CC(N)=O)C(=O)N[C@@H]([C@@H](C)O)C(=O)N[C@@H](C)C(=O)N[C@@H]([C@@H](C)O)C(=O)N1)[C@@H](C)O)C(=O)N1CCC[C@H]1C(=O)N[C@@H](CO)C(=O)N[C@@H](CO)C(=O)N[C@H](C(=O)N[C@@H](CC(N)=O)C(=O)N[C@H](C(=O)NCC(=O)N[C@@H](Cc1c[nH]cn1)C(=O)N[C@@H](CC(N)=O)C(=O)N[C@H](C(=O)N[C@@H](Cc1ccc(O)cc1)C(N)=O)[C@@H](C)O)C(C)C)[C@@H](C)O
notes: also called compound 91

Biological target: T1, human calcitonin receptor
Assay: ratio of IC50 at human calcitonin receptor to IC50 at human amylin receptor (SPA competition assays)
Outline: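 Membranes (35 ng/μL final) + SPA beads, 50 mM Hepes pH 7.4 buffer with 1 mM CaCl2, 5 mM MgCl₂, 0.1% OA, 0.02% Tween20; 120 min, 25° C, shaking; centrifuged, counted; IC₅₀ by one-site binding competition.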

Row | Binder | Ratio hCT/hAmylin binding
1 | B1 | 104
2 | B2 | 118
3 | B3 | 145
4 | B4 | 45.3
5 | B5 | 159
6 | B6 | 101

Biological target: T1, human calcitonin receptor
Assay: SPA radioligand competition (125I-calcitonin), membranes of BHK cells with human calcitonin receptor
Outline: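 BHK hCTR membranes 35 ng/μL + SPA beads 0.05 mg/well; buffer 50 mM Hepes pH 7.4, 1 mM CaCl2, 5 mM MgCl₂, 0.1% OA, 0.02% Tween20. 120 min, 25° C., shaking. Scintillation count; IC50 by one-site binding competition.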

Row | Binder | IC50 [µM]
7 | B1 | 0.0589
8 | B2 | 0.0507
9 | B3 | 0.026
10 | B4 | 0.00344
11 | B5 | 0.133
12 | B6 | 0.012
